For test [1], the target named is 190-kD proteolytic fragment of talin (chicken) (UniProt P54939). The test can be described thus: radioligand binding.
The target in test [2] is talin purified from chicken gizzard (chicken) (UniProt P54939). The test can be described thus: radioligand binding.

In test [1], “vinculin purified from chicken gizzard (natural protein)” had a Kd, higher affinity of two of 16 nM and a Kd, lower affinity of two of 220 nM. Besides, in test [2], the Kd, high affinity interaction worked out at 30 nM; the Kd, higher affinity of two worked out at 10 nM; the Kd, lower affinity interaction was found to be 550 nM; the Kd, lower affinity of two turned out to be 240 nM. In test [2], this substance gave a N (Bmax), high affinity interaction (mol of vinculin bound per mol of talin) of 0.15 and a N (Bmax), lower affinity interaction (mol of vinculin bound per mol of talin) of 3.

(Values after publication PMC2119638.)
